From article PMC5657569 (Molecular cell, 2017)

B1: CARM1, purified human protein (enzyme, UniProt Q86X55 1-608, looked up)
chain: MAAAAAAVGPGAGGAGSAVPGGAGPCATVSVFPGARLLTIGDANGEIQRHAEQQALRLEVRAGPDSAGIALYSHEDVCVFKCSVSRETECSRVGKQSFIITLGCNSVLIQFATPNDFCSFYNILKTCRGHTLERSVFSERTEESSAVQYFQFYGYLSQQQNMMQDYVRTGTYQRAILQNHTDFKDKIVLDVGCGSGILSFFAAQAGARKIYAVEASTMAQHAEVLVKSNNLTDRIVVIPGKVEEVSLPEQVDIIISEPMGYMLFNERMLESYLHAKKYLKPSGNMFPTIGDVHLAPFTDEQLYMEQFTKANFWYQPSFHGVDLSALRGAAVDEYFRQPVVDTFDIRILMAKSVKYTVNFLEAKEGDLHRIEIPFKFHMLHSGLVHGLAFWFDVAFIGSIMTVWLSTAPTEPLTHWYQVRCLFQSPLFAKAGDTLSGTCLLIANKRQSYDISIVAQVDQTGSKSSNLLDLKNPFFRYTGTTPSPPPGSHYTSPSENMWNTGSTYNLSSGMAVAGMPTAYDLSSVIASGSSVGHNNLIPLANTGIVNHTHSRMGSIMSTGIVQGSSGAQGSGGGSTSAHYAVNSQFTMGGPAISMASPMSIPTNTMHYGS
B2: Estrogen receptor alpha (ERα), purified human protein (receptor, UniProt P03372 1-595, looked up)
chain: MTMTLHTKASGMALLHQIQGNELEPLNRPQLKIPLERPLGEVYLDSSKPAVYNYPEGAAYEFNAAAAANAQVYGQTGLPYGPGSEAAAFGSNGLGGFPPLNSVSPSPLMLLHPPPQLSPFLQPHGQQVPYYLENEPSGYTVREAGPPAFYRPNSDNRRQGGRERLASTNDKGSMAMESAKETRYCAVCNDYASGYHYGVWSCEGCKAFFKRSIQGHNDYMCPATNQCTIDKNRRKSCQACRLRKCYEVGMMKGGIRKDRRGGRMLKHKRQRDDGEGRGEVGSAGDMRAANLWPSPLMIKRSKKNSLALSLTADQMVSALLDAEPPILYSEYDPTRPFSEASMMGLLTNLADRELVHMINWAKRVPGFVDLTLHDQVHLLECAWLEILMIGLVWRSMEHPGKLLFAPNLLLDRNQGKCVEGMVEIFDMLLATSSRFRMMNLQGEEFVCLKSIILLNSGVYTFLSSTLKSLEEKDHIHRVLDKITDTLIHLMAKAGLTLQQQHQRLAQLLLILSHIRHMSNKGMEHLYSMKCKNVVPLYDLLLEMLDAHRLHAPTSRGGASVEETDQSHLATAGSTSSHSLQKYYITGEAEGFPATV

How the values were obtained:
[1] = molecular target: p300, purified recombinant protein from baculovirus (human, UniProt Q09472 1-2414); test: cryo-EM structure
[2] = molecular target: B1; test: cryo-EM structure

Chain of p300, purified recombinant protein from baculovirus (Q09472 whole entry): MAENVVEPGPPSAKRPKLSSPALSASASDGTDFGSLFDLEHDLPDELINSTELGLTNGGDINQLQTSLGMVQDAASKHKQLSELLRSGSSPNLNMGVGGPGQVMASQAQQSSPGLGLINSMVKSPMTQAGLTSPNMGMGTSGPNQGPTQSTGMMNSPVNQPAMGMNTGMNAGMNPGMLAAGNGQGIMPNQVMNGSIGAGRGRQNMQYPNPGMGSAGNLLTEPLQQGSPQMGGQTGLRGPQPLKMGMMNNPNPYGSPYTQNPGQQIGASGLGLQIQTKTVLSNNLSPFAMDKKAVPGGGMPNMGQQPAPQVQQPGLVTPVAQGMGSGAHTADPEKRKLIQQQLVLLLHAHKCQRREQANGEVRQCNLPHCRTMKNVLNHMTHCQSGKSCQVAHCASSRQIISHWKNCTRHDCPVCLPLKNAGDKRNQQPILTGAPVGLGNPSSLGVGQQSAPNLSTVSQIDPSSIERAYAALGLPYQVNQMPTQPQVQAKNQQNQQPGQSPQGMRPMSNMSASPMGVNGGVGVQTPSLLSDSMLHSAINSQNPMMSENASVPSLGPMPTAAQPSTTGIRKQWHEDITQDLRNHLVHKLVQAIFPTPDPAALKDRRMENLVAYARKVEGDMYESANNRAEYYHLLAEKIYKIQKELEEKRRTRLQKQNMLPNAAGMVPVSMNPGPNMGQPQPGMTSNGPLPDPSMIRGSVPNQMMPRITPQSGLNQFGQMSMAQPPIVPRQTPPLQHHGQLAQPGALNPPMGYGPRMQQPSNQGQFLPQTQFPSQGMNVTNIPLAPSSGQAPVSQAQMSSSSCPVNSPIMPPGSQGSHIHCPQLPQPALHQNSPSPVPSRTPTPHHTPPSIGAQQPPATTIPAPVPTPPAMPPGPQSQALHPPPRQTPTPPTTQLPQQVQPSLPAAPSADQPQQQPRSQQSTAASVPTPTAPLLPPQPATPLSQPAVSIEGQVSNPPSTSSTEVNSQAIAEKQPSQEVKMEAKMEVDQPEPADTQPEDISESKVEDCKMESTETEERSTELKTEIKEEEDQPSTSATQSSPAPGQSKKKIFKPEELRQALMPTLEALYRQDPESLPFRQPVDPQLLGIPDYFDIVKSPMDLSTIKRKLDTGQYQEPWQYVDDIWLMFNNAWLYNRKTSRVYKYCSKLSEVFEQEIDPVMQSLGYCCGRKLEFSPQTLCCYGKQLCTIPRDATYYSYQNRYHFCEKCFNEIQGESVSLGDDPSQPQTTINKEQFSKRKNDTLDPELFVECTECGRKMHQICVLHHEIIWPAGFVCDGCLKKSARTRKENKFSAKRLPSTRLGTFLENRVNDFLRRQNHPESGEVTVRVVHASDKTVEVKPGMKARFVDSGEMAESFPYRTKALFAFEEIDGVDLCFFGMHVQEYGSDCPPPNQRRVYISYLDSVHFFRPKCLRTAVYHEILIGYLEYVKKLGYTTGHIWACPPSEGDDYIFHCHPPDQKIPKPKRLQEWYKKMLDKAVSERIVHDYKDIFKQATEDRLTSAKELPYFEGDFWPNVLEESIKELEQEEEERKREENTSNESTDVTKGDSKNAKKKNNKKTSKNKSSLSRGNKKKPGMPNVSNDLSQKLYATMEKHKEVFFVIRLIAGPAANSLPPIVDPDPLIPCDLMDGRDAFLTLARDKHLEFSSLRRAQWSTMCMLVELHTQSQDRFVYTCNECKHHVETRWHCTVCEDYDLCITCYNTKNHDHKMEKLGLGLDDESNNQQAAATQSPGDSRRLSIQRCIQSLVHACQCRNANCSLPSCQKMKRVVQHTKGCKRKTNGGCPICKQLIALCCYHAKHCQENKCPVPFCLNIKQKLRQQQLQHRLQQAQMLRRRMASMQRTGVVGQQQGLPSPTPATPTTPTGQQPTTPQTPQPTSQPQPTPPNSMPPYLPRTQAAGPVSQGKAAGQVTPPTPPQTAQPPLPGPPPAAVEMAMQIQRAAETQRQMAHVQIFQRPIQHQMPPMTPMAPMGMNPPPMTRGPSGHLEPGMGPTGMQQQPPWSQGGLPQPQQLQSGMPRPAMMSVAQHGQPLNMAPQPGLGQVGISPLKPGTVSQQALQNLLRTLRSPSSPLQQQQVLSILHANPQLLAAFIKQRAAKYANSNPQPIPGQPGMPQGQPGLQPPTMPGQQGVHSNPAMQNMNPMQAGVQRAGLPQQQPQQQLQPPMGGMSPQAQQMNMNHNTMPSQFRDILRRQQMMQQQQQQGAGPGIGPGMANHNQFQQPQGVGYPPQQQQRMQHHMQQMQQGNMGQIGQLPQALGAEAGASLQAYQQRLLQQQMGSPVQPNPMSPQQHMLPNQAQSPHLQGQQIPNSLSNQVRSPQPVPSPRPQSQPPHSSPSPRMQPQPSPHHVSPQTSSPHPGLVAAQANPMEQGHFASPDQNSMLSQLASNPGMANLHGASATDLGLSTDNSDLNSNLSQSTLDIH

| binding result [1] | binding result [2] | Binder |
| --- | --- | --- |
| binds | – | B1 |
| binds | binds | B2 |
